In the supplement of paper PMC11246515:
± gives the standard deviation of the averaged measurements.

Test: total protein half-life in vivo (active degradation + dilution); higher = more stable protein
[1] = E. coli NCM3722 delta-clpP delta-lon delta-hslV, growth: N-lim chemostat, doubling time 6 h
[2] = E. coli NCM3722 delta-clpP, growth: N-lim chemostat, doubling time 6 h
[3] = E. coli NCM3722 delta-hslV, growth: N-lim chemostat, doubling time 6 h
[4] = E. coli NCM3722 delta-lon, growth: N-lim chemostat, doubling time 6 h
[5] = E. coli NCM3722 delta-smpB, growth: N-lim chemostat, doubling time 6 h
[6] = wild type E. coli NCM3722, growth: C-lim chemostat, doubling time 3 h
[7] = wild type E. coli NCM3722, growth: C-lim chemostat, doubling time 6 h
[8] = wild type E. coli NCM3722, growth: C-lim chemostat, doubling time 12 h
[9] = wild type E. coli NCM3722, growth: N-lim chemostat, doubling time 6 h
[10] = wild type E. coli NCM3722, growth: N-lim chemostat, doubling time 12 h
[11] = wild type E. coli NCM3722, growth: P-lim chemostat, doubling time 6 h
[12] = wild type E. coli NCM3722, growth: P-lim chemostat, doubling time 12 h

Row | Sequence | total protein half-life in vivo [1] [h] | total protein half-life in vivo [2] [h] | total protein half-life in vivo [3] [h] | total protein half-life in vivo [4] [h] | total protein half-life in vivo [5] [h] | total protein half-life in vivo [6] [h] | total protein half-life in vivo [7] [h] | total protein half-life in vivo [8] [h] | total protein half-life in vivo [9] [h] | total protein half-life in vivo [10] [h] | total protein half-life in vivo [11] [h] | total protein half-life in vivo [12] [h]
1 | MPEQYRYTLPVKAGEQRLLGELTGAACATLVAEIAERHAGPVVLIAPDMQNALRLHDEISQFTDQMVMNLADWETLPYDSFSPHQDIISSRLSTLYQLPTMQRGVLIVPVNTLMQRVCPHSFLHGHALVMKKGQRLSRDALRTQLDSAGYRHVDQVMEHGEYATRGALLDLFPMGSELPYRLDFFDDEIDSLRVFDVDSQRTLEEVEAINLLPAHEFPTDKAAIELFRSQWRDTFEVKRDPEHIYQQVSKGTLPAGIEYWQPLFFSEPLPPLFSYFPANTLLVNTGDLETSAERFQADTLARFENRGVDPMRPLLPPQSLWLRVDELFSELKNWPRVQLKTEHLPTKAANANLGFQKLPDLAVQAQQKAPLDALRKFLETFDGPVVFSVESEGRREALGELLARIKIAPQRIMRLDEASDRGRYLMIGAAEHGFVDTVRNLALICESDLLGERVARRRQDSRRTINPDTLIRNLAELHIGQPVVHLEHGVGRYAGMTTLEAGGITGEYLMLTYANDAKLYVPVSSLHLISRYAGGAEENAPLHKLGGDAWSRARQKAAEKVRDVAAELLDIYAQRAAKEGFAFKHDREQYQLFCDSFPFETTPDQAQAINAVLSDMCQPLAMDRLVCGDVGFGKTEVAMRAAFLAVDNHKQVAVLVPTTLLAQQHYDNFRDRFANWPVRIEMISRFRSAKEQTQILAEVAEGKIDILIGTHKLLQSDVKFKDLGLLIVDEEHRFGVRHKERIKAMRANVDILTLTATPIPRTLNMAMSGMRDLSIIATPPARRLAVKTFVREYDSMVVREAILREILRGGQVYYLYNDVENIQKAAERLAELVPEARIAIGHGQMRERELERVMNDFHHQRFNVLVCTTIIETGIDIPTANTIIIERADHFGLAQLHQLRGRVGRSHHQAYAWLLTPHPKAMTTDAQKRLEAIASLEDLGAGFALATHDLEIRGAGELLGEEQSGSMETIGFSLYMELLENAVDALKAGREPSLEDLTSQQTEVELRMPSLLPDDFIPDVNTRLSFYKRIASAKTENELEEIKVELIDRFGLLPDPARTLLDIARLRQQAQKLGIRKLEGNEKGGVIEFAEKNHVNPAWLIGLLQKQPQHYRLDGPTRLKFIQDLSERKTRIEWVRQFMRELEENAIA | 5.59 ± 0.3 | 5.07 ± 0.12 | 5.1 ± 0.13 | 5.12 ± 0.13 | 5.021 ± 0.009 | 3.07 ± 0.11 | 6.0491 ± 0.00051 | 11.4 ± 0.52 | 4.9912 ± 0.001 | 8.76 ± 0.27 | 5.92 ± 0.57 | 11.3 ± 0.21
2 | MPEVQTDHPETAELSKPQLRMVDLNLLTVFDAVMQEQNITRAAHVLGMSQPAVSNAVARLKVMFNDELFVRYGRGIQPTARAFQLFGSVRQALQLVQNELPGSGFEPASSERVFHLCVCSPLDSILTSQIYNHIEQIAPNIHVMFKSSLNQNTEHQLRYQETEFVISYEDFHRPEFTSVPLFKDEMVLVASKNHPTIKGPLLKHDVYNEQHAAVSLDRFASFSQPWYDTVDKQASIAYQGMAMMSVLSVVSQTHLVAIAPRWLAEEFAESLELQVLPLPLKQNSRTCYLSWHEAAGRDKGHQWMEEQLVSICKR | 5.69 ± 0.67 | 1.07 |  |  |  |  |  |  |  |  |  | 
3 | MPFRSNNPITRDELLSRFFPQYHPVTTFNSGLSGGSFLIEHQGQRFVVRQPHDPDAPQSAFLRQYRALSQLPACIAPKPHLYLRDWMVVDYLPGAVKTYLPDTNELAGLLYYLHQQPRFGWRITLLPLLELYWQQSDPARRTVGWLRMLKRLRKAREPRPLRLSPLHMDVHAGNLVHSASGLKLIDWEYAGDGDIALELAAVWVENTEQHRQLVNDYATRAKIYPAQLWRQVRRWFPWLLMLKAGWFEYRWRQTGDQQFIRLADDTWRQLLIKQ | 6.3 ± 0.21 | 6.27 ± 0.31 | 6.3 | 6.04 ± 0.35 | 5.66 |  | 7.13 | > 16 | 6.24 ± 0.49 | 13.6 | 5.96 | 11.1
4 | MPGLKITLLQQPLVWMDGPANLRHFDRQLEGITGRDVIVLPEMFTSGFAMEAAASSLAQDDVVNWMTAKAQQCNALIAGSVALQTESGSVNRFLLVEPGGTVHFYDKRHLFRMADEHLHYKAGNARVIVEWRGWRILPLVCYDLRFPVWSRNLNDYDLALYVANWPAPRSLHWQALLTARAIENQAYVAGCNRVGSDGNGCHYRGDSRVINPQGEIIATADAHQATRIDAELSMAALREYREKFPAWQDADEFRLW | 4.72 ± 0.34 | 4.042 ± 0.0079 | 4.46 ± 0.63 | 4.4 ± 0.72 | 3.9 ± 0.082 | 2.74 ± 0.14 | 5.22 ± 0.33 | 11.7 ± 4.7 | 4.42 ± 0.34 | 6.49 | 5.74 ± 0.18 | 10.8 ± 0.35
5 | MPKKNEAPASFEKALSELEQIVTRLESGDLPLEEALNEFERGVQLARQGQAKLQQAEQRVQILLSDNEDASLTPFTPDNE [P0A8G9] | 7.56 | 5.9 | 6.62 |  |  |  | 6.16 ± 0.35 | 14.4 | 5.09 ± 0.59 |  | 4.86 ± 0.049 | 14.2 ± 1.7
6 | MPKLGMQSIRRRQLIDATLEAINEVGMHDATIAQIARRAGVSTGIISHYFRDKNGLLEATMRDITSQLRDAVLNRLHALPQGSAEQRLQAIVGGNFDETQVSSAAMKAWLAFWASSMHQPMLYRLQQVSSRRLLSNLVSEFRRELPREQAQEAGYGLAALIDGLWLRAALSGKPLDKTRANSLTRHFITQHLPTD | 4.85 ± 0.33 | 4.25 |  | 4.46 |  |  |  |  | 4.99 |  |  | 
7 | MPKLILASTSPWRRALLEKLQISFECAAPEVDETPRSDESPRQLVLRLAQEKAQSLASRYPDHLIIGSDQVCVLDGEITGKPLTEENARLQLRKASGNIVTFYTGLALFNSANGHLQTEVEPFDVHFRHLSEAEIDNYVRKEHPLHCAGSFKSEGFGITLFERLEGRDPNTLVGLPLIALCQMLRREGKNPLMG [P0A729] | 4.57 ± 0.6 |  | 4.118 ± 0.0072 |  | 3.68 ± 0.16 | 3.14 ± 0.5 | 5.174 ± 0.02 | 8.34 ± 0.7 | 3.77 ± 0.35 | 6.24 ± 0.41 | 5.45 ± 0.28 | 12.1 ± 0.56
8 | MPKLRLIGLTLLALSATAVSHAEETRYVSDELNTWVRSGPGDHYRLVGTVNAGEEVTLLQTDANTNYAQVKDSSGRTAWIPLKQLSTEPSLRSRVPDLENQVKTLTDKLTNIDNTWNQRTAEMQQKVAQSDSVINGLKEENQKLKNELIVAQKKVDAASVQLDDKQRTIIMQWFMYGGGVLGLGLLLGLVLPHLIPSRKRKDRWMN [P0ADT8] |  |  | 6.56 ± 0.2 | 6.43 ± 0.12 | 5.94 ± 0.49 | 3.03 ± 0.052 | 5.84 ± 0.24 | 11.1 ± 0.11 | 5.83 ± 0.15 | 11.8 ± 0.99 | 5.51 ± 0.2 | 12.5 ± 0.39
